From patent US20240181050A1 (COMPASS THERAPEUTICS, published 2024) come the findings set out here.

In experiment [1] the target is T1, human CD137 (recombinant, construct not stated) (human, UniProt Q07011 24-186).
T1 construct: also called huCD137; 4-1BB
Briefly: Wasatch SPR kinetics, human CD137. Background: SPR reads the build-up and loss of mass on a sensor chip optically.

The target in experiment [2] is T2, mouse CD137 (equilibrium cell-binding assay) (mouse, UniProt P20334 24-256).
T2 construct: whole, on cells; The cells are not described; also called mCD137
T2 sequence (looked up): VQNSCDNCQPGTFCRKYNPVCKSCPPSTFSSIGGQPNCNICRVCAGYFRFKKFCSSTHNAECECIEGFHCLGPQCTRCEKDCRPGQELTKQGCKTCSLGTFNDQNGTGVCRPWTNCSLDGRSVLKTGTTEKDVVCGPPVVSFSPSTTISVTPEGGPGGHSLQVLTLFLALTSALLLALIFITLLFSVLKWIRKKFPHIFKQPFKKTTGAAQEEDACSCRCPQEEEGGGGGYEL
Briefly: equilibrium cell-binding assay, mouse CD137.

Experiment [3] addresses T3, purified recombinant his tagged human CD137 (human, UniProt Q07011 24-186).
T3 construct: not shown: his tag
Briefly: Carterra MX96 SPRi; antibody printed on chip, his tagged human CD137 injected. On the procedure:
The resulting anti-CD137 antibodies from different selection rounds were plotted on kd/kₐ double log plots. Apparent association and dissociation kinetic rate constants (kₐ and kd values) were determined on an SPRi reader (MX96, Carterra) in a running buffer of PBS-T 0.01%. Anti-human CD137 antibodies were covalently printed on a Carboxymethyldextran hydrogel 50 L chip (Xantec bioanalytics) on a CFM (Carterra). Freshly mixed activating reagents (150 […] 0.1 M sulfo-NHS in H2O) were used to activate the surface of the SPR substrate for 7 minutes. Antibodies at 10 mg/ml in acetic acid buffer pH 4.5 were used for printing for 15 minutes. The printed chip was then quenched on SPRi reader (MX96, Carterra) with 1 M ethanolamine for 15 minutes. For kinetics analysis, purified recombinant his tagged human CD137 (0, 2.05, 5.12, 12.8, 32, 80, 200, 500 nM) was injected sequentially. For each concentration, there was 5 minutes of association followed by 10 minutes of dissociation. Data were processed and analyzed in SPR Inspection Tool and Scrubber softwares. The kinetic data were referenced with the interstitial reference spots and double-referenced to a buffer cycle, and then fit globally to a 1:1 binding model to determine their apparent association and dissociation kinetic rate constants (kₐ and kd values). The ratio kd/kₐ was used to derive the KD value of each antigen/mAb interaction, i.e. KD=kd/kₐ.

Experiment [4] deals with T4, mouse CD137 (recombinant, ForteBio Octet) (mouse, UniProt P20334 24-187, limits assumed).
T4 construct: also called murine CD137
T4 sequence (looked up): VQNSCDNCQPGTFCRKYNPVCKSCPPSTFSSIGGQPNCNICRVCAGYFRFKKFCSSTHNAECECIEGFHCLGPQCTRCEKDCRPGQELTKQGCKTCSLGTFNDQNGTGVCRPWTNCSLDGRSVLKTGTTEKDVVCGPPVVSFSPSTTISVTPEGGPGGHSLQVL
Briefly: ForteBio Octet (BLI) as described in Example 2. As to the method: Affinity of the CD137 antibodies was determined by measuring their kinetic constants (kₐ, kd, KD) on ForteBio Octet. ForteBio affinity measurements were performed generally as previously described (Estep et al., MAbs. 2013 5(2):270-8). Briefly, ForteBio affinity measurements were performed by loading antibodies (IgGs) on-line onto AHQ sensors. Sensors were equilibrated off-line in assay buffer for 30 minutes and then monitored on-line for 60 seconds for baseline establishment. For avid binding measurement, sensors with loaded IgGs were exposed to 100 nM antigen (human, cyno, or murine CD137) for 3 minutes, afterwards they were transferred to assay buffer for 3 minutes for off-rate measurement. Monovalent binding measurements were obtained by loading human CD137-Fc fusion on AHQ sensors followed by exposure to 200 nM antibody Fab in solution. Kinetics data were fit using a 1:1 binding model in the data analysis software provided by ForteBio (data not shown).

B1: mAb1 wild type, reference of the CDRH3 alanine scan (antibody, V domains shown)
VH: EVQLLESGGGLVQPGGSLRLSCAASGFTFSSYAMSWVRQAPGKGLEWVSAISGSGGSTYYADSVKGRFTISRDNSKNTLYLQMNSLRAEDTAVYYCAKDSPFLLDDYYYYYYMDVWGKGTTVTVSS
VL: DIQMTQSPSSVSASVGDRVTITCRASQGISSWLAWYQQKPGKAPKLLIYAASSLQSGVPSRFSGSGSGTDFTLTISSLQPEDFATYYCQQGHLFPITFGGGTKVEIK
notes: The derivatives were cloned into an aglyco-IgG1 expression vector (DID-2600); also called WT KD
For the molecule B1, the results for the Kd in experiment [1] and in experiment [2] were 1 nM and 11 nM, respectively.

B2: anti-CD137 mAb8 (antibody, V domains shown)
VH: EVQLLESGGGLVQPGGSLRLSCAASGFTFRNYAMSWVRQAPGKGLEWVSAISGSGDTTYYADSVKGRFTISRDNSKNTLYLQMNSLRAEDTAVYYCAKDSPFLLDDYYYYYYMDVWGKGTTVTVSS
VL: DIQMTQSPSSVSASVGDRVTITCRASQGISSWLAWYQQKPGKAPKLLIYAASSLQSGVPSRFSGSGSGTDFTLTISSLQPEDFATYYCQQGHLFPITFGGGTKVEIK
notes: Generated with IgG4 constant regions
As to B2, the equilibrium dissociation constant (Kd) (in general, the equilibrium constant for the complex coming apart) in experiment [3] stood at 3.2 nM; in experiment [4], 72 nM.

B3: mAb1 alanine-substituted derivative L99A (antibody, IgG1, V domains shown)
VH: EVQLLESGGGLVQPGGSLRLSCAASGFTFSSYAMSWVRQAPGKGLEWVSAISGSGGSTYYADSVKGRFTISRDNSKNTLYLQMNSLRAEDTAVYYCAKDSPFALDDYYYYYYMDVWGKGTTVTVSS
VL: DIQMTQSPSSVSASVGDRVTITCRASQGISSWLAWYQQKPGKAPKLLIYAASSLQSGVPSRFSGSGSGTDFTLTISSLQPEDFATYYCQQGHLFPITFGGGTKVEIK
notes: aglyco-IgG1 vector (DID-2600)
As to B3, the results for the equilibrium dissociation constant (Kd) in experiment [1] and in experiment [2] were 2.7 nM and 33 nM, respectively.

B4: mAb1 alanine-substituted derivative D95A (antibody, V domains shown)
VH: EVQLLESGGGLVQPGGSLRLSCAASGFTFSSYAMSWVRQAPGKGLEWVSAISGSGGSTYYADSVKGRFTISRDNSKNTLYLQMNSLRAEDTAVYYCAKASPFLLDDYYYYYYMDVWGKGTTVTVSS
VL: DIQMTQSPSSVSASVGDRVTITCRASQGISSWLAWYQQKPGKAPKLLIYAASSLQSGVPSRFSGSGSGTDFTLTISSLQPEDFATYYCQQGHLFPITFGGGTKVEIK
notes: aglyco-IgG1 vector (DID-2600)
On to B4, for which the binding result in experiment [1] and in experiment [2] was “no binding” in each case.

B5: mAb1 alanine-substituted derivative Y(100G)A (antibody, IgG1, V domains shown)
VH: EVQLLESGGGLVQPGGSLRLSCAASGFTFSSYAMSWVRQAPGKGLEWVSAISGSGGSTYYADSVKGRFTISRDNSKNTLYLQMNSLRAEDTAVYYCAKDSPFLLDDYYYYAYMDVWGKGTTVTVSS
VL: DIQMTQSPSSVSASVGDRVTITCRASQGISSWLAWYQQKPGKAPKLLIYAASSLQSGVPSRFSGSGSGTDFTLTISSLQPEDFATYYCQQGHLFPITFGGGTKVEIK
notes: aglyco-IgG1 vector (DID-2600)
As to B5, the binding result in experiment [1] and in experiment [2] was “no binding” each time.

B6: mAb1 alanine-substituted derivative M(100I)A (antibody, IgG1, V domains shown)
VH: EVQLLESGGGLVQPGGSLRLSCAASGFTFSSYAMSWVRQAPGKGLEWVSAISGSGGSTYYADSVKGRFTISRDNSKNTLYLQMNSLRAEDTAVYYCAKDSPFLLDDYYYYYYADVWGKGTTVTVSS
VL: DIQMTQSPSSVSASVGDRVTITCRASQGISSWLAWYQQKPGKAPKLLIYAASSLQSGVPSRFSGSGSGTDFTLTISSLQPEDFATYYCQQGHLFPITFGGGTKVEIK
notes: aglyco-IgG1 vector (DID-2600)
B6: the Kd in experiment [1] was determined as 1.8 nM; in experiment [2] it was 21 nM.

B7: mAb1 alanine-substituted derivative D(100B)A (antibody, IgG1, V domains shown)
VH: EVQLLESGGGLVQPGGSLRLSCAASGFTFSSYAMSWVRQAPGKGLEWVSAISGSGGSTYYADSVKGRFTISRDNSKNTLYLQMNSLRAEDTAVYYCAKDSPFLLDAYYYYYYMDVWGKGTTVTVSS
VL: DIQMTQSPSSVSASVGDRVTITCRASQGISSWLAWYQQKPGKAPKLLIYAASSLQSGVPSRFSGSGSGTDFTLTISSLQPEDFATYYCQQGHLFPITFGGGTKVEIK
notes: aglyco-IgG1 vector (DID-2600)
Consider B7, for which the values for the Kd in experiment [1] and in experiment [2] were 1.3 nM and 54 nM, respectively.

B8: mAb1 alanine-substituted derivative Y(100C)A (antibody, IgG1, V domains shown)
VH: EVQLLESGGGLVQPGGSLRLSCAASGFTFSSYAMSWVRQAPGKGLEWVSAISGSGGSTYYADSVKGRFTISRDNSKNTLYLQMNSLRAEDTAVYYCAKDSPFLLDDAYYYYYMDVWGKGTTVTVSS
VL: DIQMTQSPSSVSASVGDRVTITCRASQGISSWLAWYQQKPGKAPKLLIYAASSLQSGVPSRFSGSGSGTDFTLTISSLQPEDFATYYCQQGHLFPITFGGGTKVEIK
notes: aglyco-IgG1 vector (DID-2600)
As to B8, the Kd in experiment [1] was 1 nM; in experiment [2], 25 nM.

B9: mAb9 (antibody, IgG4, V domains shown)
VH: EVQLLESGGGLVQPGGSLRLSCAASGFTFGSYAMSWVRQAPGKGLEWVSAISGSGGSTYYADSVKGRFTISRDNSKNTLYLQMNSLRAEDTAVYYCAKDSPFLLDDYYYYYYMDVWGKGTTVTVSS
VL: DIQMTQSPSSVSASVGDRVTITCRASQGISSWLAWYQQKPGKAPKLLIYAASSLQSGVPSRFSGSGSGTDFTLTISSLQPEDFATYYCQQGHLFPITFGGGTKVEIK
Turning to B9, the Kd in experiment [3] is 41.4 nM; in experiment [4], 6.9 nM.

B10: mAb7 (antibody, IgG4, V domains shown)
VH: EVQLLESGGGLVQPGGSLRLSCAASGFTFNYYAMSWVRQAPGKGLEWVSAIDGSGDNTTYADSVKGRFTISRDNSKNTLYLQMNSLRAEDTAVYYCAKDSPFLLDDYYYYYYMDVWGKGTTVTVSS
VL: DIQMTQSPSSVSASVGDRVTITCRASQGISSWLAWYQQKPGKAPKLLIYAASSLQSGVPSRFSGSGSGTDFTLTISSLQPEDFATYYCQQGHLFPITFGGGTKVEIK
For B10, the results for the Kd in experiment [3] and in experiment [4] were 6.8 nM and 1.2 nM, respectively.

B11: mAb1 alanine-substituted derivative L100A (antibody, IgG1, V domains shown)
VH: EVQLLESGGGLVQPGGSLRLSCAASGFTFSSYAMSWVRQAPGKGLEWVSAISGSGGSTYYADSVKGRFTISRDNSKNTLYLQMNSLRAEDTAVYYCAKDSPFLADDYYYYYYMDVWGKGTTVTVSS
VL: DIQMTQSPSSVSASVGDRVTITCRASQGISSWLAWYQQKPGKAPKLLIYAASSLQSGVPSRFSGSGSGTDFTLTISSLQPEDFATYYCQQGHLFPITFGGGTKVEIK
notes: aglyco-IgG1 vector (DID-2600); Leucine at position 100 is changed to alanine
B11: the binding result in experiment [1] and in experiment [2] was “no binding” each time.

B12: mAb1 alanine-substituted derivative Y(100H)A (antibody, IgG1, V domains shown)
VH: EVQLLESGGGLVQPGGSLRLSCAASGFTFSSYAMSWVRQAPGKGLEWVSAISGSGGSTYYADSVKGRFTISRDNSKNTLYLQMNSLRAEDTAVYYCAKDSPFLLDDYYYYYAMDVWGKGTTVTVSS
VL: DIQMTQSPSSVSASVGDRVTITCRASQGISSWLAWYQQKPGKAPKLLIYAASSLQSGVPSRFSGSGSGTDFTLTISSLQPEDFATYYCQQGHLFPITFGGGTKVEIK
notes: aglyco-IgG1 vector (DID-2600)
As for B12, the binding result in experiment [1] and in experiment [2] was “no binding” in each case.

B13: mAb1 alanine-substituted derivative Y(100D)A (antibody, IgG1, V domains shown)
VH: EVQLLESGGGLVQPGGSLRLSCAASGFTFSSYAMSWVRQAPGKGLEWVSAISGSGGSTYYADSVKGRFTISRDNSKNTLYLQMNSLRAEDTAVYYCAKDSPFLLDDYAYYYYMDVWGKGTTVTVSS
VL: DIQMTQSPSSVSASVGDRVTITCRASQGISSWLAWYQQKPGKAPKLLIYAASSLQSGVPSRFSGSGSGTDFTLTISSLQPEDFATYYCQQGHLFPITFGGGTKVEIK
notes: aglyco-IgG1 vector (DID-2600)
For B13, the Kd in experiment [2] turned out to be 170 nM.

B14: mAb1 alanine-substituted derivative Y(100E)A (antibody, IgG1, V domains shown)
VH: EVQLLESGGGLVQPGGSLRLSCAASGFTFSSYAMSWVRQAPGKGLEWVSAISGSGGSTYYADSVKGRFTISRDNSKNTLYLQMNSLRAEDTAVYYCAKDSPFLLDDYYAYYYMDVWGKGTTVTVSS
VL: DIQMTQSPSSVSASVGDRVTITCRASQGISSWLAWYQQKPGKAPKLLIYAASSLQSGVPSRFSGSGSGTDFTLTISSLQPEDFATYYCQQGHLFPITFGGGTKVEIK
notes: aglyco-IgG1 vector (DID-2600)
Turning to B14, the binding result in experiment [1] and in experiment [2] was “no binding” in each case.

B15: anti-CD137 mAb10 (antibody, IgG4, V domains shown)
VH: EVQLLESGGGLVQPGGSLRLSCAASGFTFYGYAMSWVRQAPGKGLEWVAAISGSGDSTYYADSVKGRFTISRDNSKNTLYLQMNSLRAEDTAVYYCAKDSPFLLDDYYYYYYMDVWGKGTTVTVSS
VL: DIQMTQSPSSVSASVGDRVTITCRASQGISSWLAWYQQKPGKAPKLLIYAASSLQSGVPSRFSGSGSGTDFTLTISSLQPEDFATYYCQQGHLFPITFGGGTKVEIK
notes: as for B2
For B15, the results for the Kd in experiment [3] and in experiment [4] were 20 nM and 8.4 nM, respectively.

B16: mAb1 alanine-substituted derivative S96A (antibody, IgG1, V domains shown)
VH: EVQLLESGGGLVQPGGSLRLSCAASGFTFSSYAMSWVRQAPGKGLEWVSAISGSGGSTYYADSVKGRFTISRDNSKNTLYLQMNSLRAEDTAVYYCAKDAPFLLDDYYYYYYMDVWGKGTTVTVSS
VL: DIQMTQSPSSVSASVGDRVTITCRASQGISSWLAWYQQKPGKAPKLLIYAASSLQSGVPSRFSGSGSGTDFTLTISSLQPEDFATYYCQQGHLFPITFGGGTKVEIK
notes: aglyco-IgG1 vector (DID-2600)
On to B16, for which the Kd in experiment [1] is 1.8 nM; in experiment [2] it was 40 nM.

B17: mAb11 (antibody, IgG4, V domains shown)
VH: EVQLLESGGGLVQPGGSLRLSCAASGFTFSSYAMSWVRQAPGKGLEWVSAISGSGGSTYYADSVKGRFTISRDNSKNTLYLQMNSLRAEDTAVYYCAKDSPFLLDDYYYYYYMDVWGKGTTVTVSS
VL: DIQMTQSPSTLSASVGDRVTITCRASQNIHNWLAWYQQKPGKAPKLLIYKASGLESGVPSRFSGSGSGTEFTLTISSLQPDDFATYYCQQGDRFPLTFGGGTKVEIK
Regarding B17, the Kd in experiment [3] was 4.1 nM; in experiment [4], 4.8 nM.

B18: mAb12 (antibody, IgG4, V domains shown)
VH: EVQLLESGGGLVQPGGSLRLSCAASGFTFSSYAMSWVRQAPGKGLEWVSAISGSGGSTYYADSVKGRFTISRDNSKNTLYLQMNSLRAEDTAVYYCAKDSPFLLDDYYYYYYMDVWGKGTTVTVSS
VL: DIQLTQSPSSLSASVGDRVTITCRASQDIGDWLAWYQQKPGKAPKLLIYKASGLQSGVPSRFSGSGSGTEFTLTISNLQPEDFATYYCQQGNQFPLTFGQGTRLE
Turning to B18, the values for the Kd in experiment [3] and in experiment [4] were 12.1 nM and 25.8 nM, respectively.
